Assay results: publication PMC4686876, “Architecture of high-affinity unnatural-base DNA aptamers toward pharmaceutical applications”

Target: interferon-gamma (IFNγ) (human, UniProt P01579 24-161)
Experiment: SPR; method inferred; no citation given with the value; SPR (BIAcore T200, biotinylated aptamer on SA chip), 1x PBS (1 mM KH2PO4, 3 mM Na2HPO4) with 205 mM NaCl final, 0.05% NP-40, pH 7.4, 25 °C; IFNγ 1.25-50 nM
Conditions: protein: recombinant; chain copies: 2

Sequence of interferon-gamma (IFNγ) (P01579 24-161): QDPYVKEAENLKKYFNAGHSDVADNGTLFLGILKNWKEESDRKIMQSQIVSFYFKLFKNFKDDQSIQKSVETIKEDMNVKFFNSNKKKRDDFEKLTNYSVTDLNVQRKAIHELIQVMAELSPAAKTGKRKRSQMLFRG

B1: aptamer 49A (structured_DNA)
DNA: TCCACTCGGGTCATTTAATAATGTAGGTATGGGCTAGGCAGCTAGTGGA
**Q.** How did the Kd turn out when B1 was run?
**A.** The Kd was 7.2 nM.
